What was measured:
[1] = cell surface biotinylation, VEGFR2 western blot, hEMCN knockdown HRECs; settings: glycan lost; control: ∆21-121 EMCN
[2] = immunocytochemistry of internalised VEGFR2, BSA vs VEGF; settings: glycan lost; control: ∆21-121 EMCN

B1: mouse EMCN (mEMCN, endomucin): N-Mut (protein)
parent chain: MRLLQATVLFFLLSNSLCHSEDGKDVQNDSIPTPAETSTTKASVTIPGIVSVTNPNKPADGTPPEGTTKSDVSQTSLVTTINSLTTPKHEVGTTTEGPLRNESSTMKITVPNTPTSNANSTLPGSQNKTENQSSIRTTEISVTTQLLDALPKITATSSASLTTAHTMSLLQDTEDRKIATTPSTTPSYSSIILPVVIALVVITLLVFTLVGLYRICWKRDPGTPENGNDQPQSDKESVKLLTVKTISHESGEHSAQGKTKN
[1]
  other: rescue of VEGF-induced VEGFR2 internalisation: abolishes
[2]
  other: rescue of VEGF-induced VEGFR2 internalisation, other: VEGFR2-positive pixels per cell: abolishes

— paper PMC7349057
